Key:
Experiment in all cases: cell-based or functional assay
[1] = molecular target: in-frame fusion between the extracellular domain of 2KIRDL3 (KIR2DL3) and the cytoplasmic ITIM motif of NKIR (pCXND3KIR58NKIR313), expressed in Jurkat cells (human) (UniProt P43628)
[2] = molecular target: CD8-NKIR fusion protein (extracellular domain of CD8 alpha chain fused to the cytoplasmic ITIM motif of NKIR; pCXND3CD8NKIRfull), expressed in F11 Jurkat reporter cells (human) (UniProt P01732)
[3] = molecular target: CD8-KIR fusion protein (extracellular domain of CD8 alpha chain fused to the cytoplasmic ITIM motif of KIR; pCXND3CD8KIRfull), expressed in F11 Jurkat reporter cells (human) (UniProt P01732)

Chain of UniProt P43628 (P43628 other isoform, or with tags, fused parts or gaps limits assumed): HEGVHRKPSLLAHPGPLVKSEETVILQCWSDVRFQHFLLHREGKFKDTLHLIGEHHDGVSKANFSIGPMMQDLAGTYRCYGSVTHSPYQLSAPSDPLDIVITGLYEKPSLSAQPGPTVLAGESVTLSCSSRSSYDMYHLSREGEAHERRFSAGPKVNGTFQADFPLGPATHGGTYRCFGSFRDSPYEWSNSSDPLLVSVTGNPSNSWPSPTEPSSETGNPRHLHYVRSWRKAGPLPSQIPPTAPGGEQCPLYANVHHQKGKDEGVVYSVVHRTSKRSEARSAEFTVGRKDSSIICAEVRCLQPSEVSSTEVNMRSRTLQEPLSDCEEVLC

Substance | inhibition of luciferase activity (NFAT-luciferase reporter, anti-CD3 stimulated chimeraA10ZEOR12 cells, GL183 1 µg/ml then rat anti-mouse IgG cross-linking) [1] [%] | degree of reduction of luciferase reporter activity (NFAT-luciferase, 10-hour ConA stimulation, LT8 1.5 µg/ml; clone NKIR#16) [2] [%] | degree of reduction of luciferase reporter activity (NFAT-luciferase, 10-hour ConA stimulation, LT8 1.5 µg/ml; clone NKIR#19) [2] [%] | degree of reduction of luciferase reporter activity (NFAT-luciferase, 10-hour ConA stimulation, LT8 1.5 µg/ml) [3] [%]
GL183 monoclonal antibody (Beckman Coulter) | 33.3 | – | – | –
anti-CD8 antibody LT8 (Serotec, MCA1226XZ) | – | 21.2 | 30.2 | 16.6

— patent publication US20070202501A1
